Data taken from IntAct's records for PubMed 18191225.

B1: Caveolin-3 (Mus musculus), P51637 (parent)
chain: MMTEEHTDLEARIIKDIHCKEIDLVNRDPKNINEDIVKVDFEDVIAEPEGTYSFDGVWKVSFTTFTVSKYWCYRLLSTLLGVPLALLWGFLFACISFCHIWAVVPCIKSYLIEIQCISHIYSLCIRTFCNPLFAALGQVCSNIKVVLRREG
partner: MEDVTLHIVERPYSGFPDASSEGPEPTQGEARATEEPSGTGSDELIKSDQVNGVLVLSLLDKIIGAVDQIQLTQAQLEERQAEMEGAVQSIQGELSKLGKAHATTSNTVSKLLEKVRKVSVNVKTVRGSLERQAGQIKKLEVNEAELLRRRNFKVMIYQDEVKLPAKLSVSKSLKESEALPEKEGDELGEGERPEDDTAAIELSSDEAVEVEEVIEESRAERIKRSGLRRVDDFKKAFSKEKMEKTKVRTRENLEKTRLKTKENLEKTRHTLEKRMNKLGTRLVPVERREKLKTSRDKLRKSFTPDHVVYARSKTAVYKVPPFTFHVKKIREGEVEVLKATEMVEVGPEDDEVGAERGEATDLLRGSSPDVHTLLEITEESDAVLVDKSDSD

Variants of: B1
Conditions: with cavn1_mouse Cavin1, O54724

Variant	effect of a mutation on the interaction
MMTEEHTDLEARIIKDIHCKEIDLVNRDPKNINEDIVKVDFEDVIAEPEGTYSFDGVWKVSFTTFTVSKYWCYRLLSTLLGVPLALLWGFLFACISFCHIWAVVLCIKSYLIEIQCISHIYSLCIRTFCNPLFAALGQVCSNIKVVLRREG	decreasing interaction
